Experimental data published in paper PMC8480326, “Chemoenzymatic glycan-selective remodeling of a therapeutic lysosomal enzyme with high-affinity M6P-glycan ligands. Enzyme substrate specificity is the name of the game” (Chemical Science, 2021).

Test: observation during stepwise remodeling
Settings: glycan lost; control: commercial rhGAA

In the case of “recombinant human acid α-glucosidase (rhGAA, Lumizyme): Endo-F3 deglycosylation”, the stability_or_folding is reported as “decreases”.
